From paper PMC6384963, “The β-N-Acetylhexosaminidase in the Synthesis of Bioactive Glycans: Protein and Reaction Engineering” (Molecules, 2019)
Substitutions are numbered along the chain they refer to. In names and notes the source's numbering stands.

B1: TfHex (β-N-acetylhexosaminidase from Talaromyces flavus) (Talaromyces flavus; Y470N) (protein)
chain: VAVNPLPAPRSITWGTSGPISVPHNVDVKLPKNAIINDAWERAWTSIKQLRWVPQATEAPISSYEPFPTVAPTSASTASSTPLPSSSAAAVAARSQKRGHQKGSHEKRGHSQSTLRTVTVTVSDLNADLQAEVDESYTLVLDSGSSTLAITANTTWGALHAFTTLQQLVIYQDNSLIIEQPVHIEDSPLYPWRGVMIDTGRNFITVPKIKEQIDGMALSKLNILHWHLDDSQSWPVHMDTYPQMTNDAYSPWQTYSHEDIKDIIEYARARAVRVVPEVDMPGHSAAGWQQVDPSIVACAHSWWSNDNWPYHTAVEPTPGQLDPLNNKTYGVVEKVYNELSGIFTDDFFHVGGDELQTGCYNFSTYVSDYLAADPSRTYNDVTQYWVDHAFPIFKKIQNRKLVIWEDLIINNPHAPNVSTENLLVQSWNNGLTNINNLTNLGYDVLVSSSDFMNLDCGYGGFVTNDPRYDVMVNPDAVDGLANFNWGGNGGSWCAPYKTWQRIYDYDFTTNLTDAQAAHVKGAVAPLWSEQVDDTVISGKMWPRAAALAELVWSGNKDPKTGDKRTTYMTQRILNFREYLVANGVQAAPLVPKYCLQHPHSCDLYYDQTAVV
notes: secreted from Pichia pastoris KM71H, pPICZαA vector; purified by cation-exchange chromatography
B2: TfHex (β-N-acetylhexosaminidase from Talaromyces flavus) (Talaromyces flavus) (protein)
chain: B1 chain with N453Y
notes: as for B1
B3: TfHex (β-N-acetylhexosaminidase from Talaromyces flavus) (Talaromyces flavus; Y470F) (protein)
chain: B1 chain with N453F
notes: as for B1
B4: TfHex (β-N-acetylhexosaminidase from Talaromyces flavus) (Talaromyces flavus; Y470H) (protein)
chain: B1 chain with N453H
notes: as for B1

Substrate: CC(=O)N[C@H]1[C@H](Oc2ccc([N+](=O)[O-])cc2)O[C@H](CO)[C@H](O)[C@@H]1O
Assay: purified protein
Format: biochemical, Talaromyces flavus
Details: McIlvaine buffer pH 5.0, 25 °C, hydrolysis

| Protein | Km [µM] | kcat [s⁻¹] | kcat/Km [M⁻¹ s⁻¹] |
| --- | --- | --- | --- |
| B1 | 890 ± 90 | 0.35 ± 0.01 | 400 |
| B2 | 690 ± 90 | 104 ± 5 | 150000 |
| B3 | 50 ± 5 | 0.166 ± 0.003 | 3300 |
| B4 | 350 ± 30 | 0.188 ± 0.004 | 530 |

Substrate: CC(=O)N[C@H]1[C@H](Oc2ccc([N+](=O)[O-])cc2)O[C@H](CO)[C@@H](O)[C@@H]1O
Assay: purified protein
Format: biochemical, Talaromyces flavus
Details: McIlvaine buffer pH 5.0, 25 °C, hydrolysis

| Protein | Km [µM] | kcat [s⁻¹] | kcat/Km [M⁻¹ s⁻¹] |
| --- | --- | --- | --- |
| B1 | 890 ± 130 | 11.6 ± 0.6 | 13000 |
| B2 | 110 ± 20 | 47 ± 1 | 434000 |
| B3 | 23 ± 8 | 0.27 ± 0.01 | 12000 |
| B4 | 53 ± 8 | 0.67 ± 0.02 | 13000 |
